From US8652790B2, “Conformational entropy in molecular recognition” (The Trustees of the University of Pennsylvania, priority 2007, dated 2014)
Like-named read-outs stand apart in the source and are kept apart here.

Tests used:
[1] = molecular target: T1, calcium-saturated calmodulin (CaM) (Homo sapiens, UniProt P0DP23); assay: Isothermal titration calorimetry of target domain peptides binding to calcium-saturated calmodulin; conditions: for −TΔSbind: Binding entropy at 308 K (Table 3); for −TΔSbinding^total: ITC, 308 K, pH 6.5, 100 mM KCl, 6 mM CaCl2, standard errors
T1 construct: made in house
Source text: NMR methods are herein used to determine the dynamic response of human CaM (GenBank AAD45181) to the binding of six peptides representing the calmodulin-binding domains of the smooth muscle myosin light chain kinase (smMLCK; AAA69964) (Lukas, T. J. et al. Calmodulin binding domains: characterization of a phosphorylation and calmodulin binding site from myosin light chain kinase. Biochemistry 25, 1458-1464 (1986)), the neuronal and endothelial nitric oxide synthases (nNOS and eNOS; AAB60654 and AAH63294, respectively) (Zhang, M. & Vogel, H. J. Characterization of the calmodulin-binding domain of rat cerebellar nitric oxide synthase. J. Biol. Chem. 269, 981-985 (1994)), the calmodulin kinase kinase (CaMKKα; EDM05132) (Tokumitsu, H. et al. Calcium/calmodulin-dependent protein kinase kinase: identification of regulatory domains. Biochemistry 36, 12823-12827 (1997)), the calmodulin kinase I (CaMKI; EAW63990) Goldberg, J., Nairn, A. C. & Kuriyan, J. Structural basis for the autoinhibition of calcium/calmodulin-dependent protein kinase I. Cell 84, 875-887 (1996)) and the phosphodiesterase (PDE; AAD40738 (SEQ ID NO: 8)) Goldberg, J., Nairn, A. C. & Kuriyan, J. Structural basis for the autoinhibition of calcium/calmodulin-dependent protein kinase I. Cell 84, 875-887 (1996)).
Four of the peptides have been found previously by isothermal titration calorimetry to have roughly the same affinity for calmodulin but with widely different thermodynamic parameters defining the free energy of association. Wintrode, P. L. & Privalov, P. L. Energetics of target peptide recognition by calmodulin: a calorimetric study. […] J. Biol. Chem. 276, 14083-14091 (2001). The present study repeats isothermal titration calorimetry measurements at a temperature (35° C.) that is more optimal for solution NMR spectroscopy, and characterizes the thermodynamics of binding of two additional domains (FIG. 1). Shown in FIG. 1 are the Gibbs free energy (ΔG), enthalpy (ΔH) and entropy (−TΔS) for the formation of the six calcium-saturated CaM-peptide complexes at 35° C., as determined by isothermal titration calorimetry.
Calmodulin and synthetic peptides and complexes were prepared as described previously (Kranz, J. K. et al. A direct test of the reductionist approach to structural studies of calmodulin activity: relevance of peptide models of target proteins. J. Biol. Chem. 277, 16351-16354 (2002)) in 20 mM imidazole (pH 6.5), 100 mM KCl, 6 mM CaCl2 and 0.02% (w/v) NaN3. NMR samples were slightly (˜10%) over-titrated with peptide to ensure full complex formation. […] Data were obtained with a VP-isothermal titration calorimeter (Microcal) and analysed with the Origin (v.5) software.

[2] = molecular target: T1, calcium-saturated calmodulin (CaM); assay: Deuterium NMR relaxation of methyl-bearing side chains of target domains bound to CaM; conditions: residue L20 of the bound target domain
Source text: Using deuterium NMR relaxation methods, fast motion of the methyl-bearing side-chains of the target domains in the six CaM complexes were examined. Muhandiram, D. R. et al., Measurement of H-2 T-1 and T-1p relaxation-times in uniformly C-13-Labeled and fractionally H-2-labeled proteins in solution. J. Am. Chem. Soc. 117, 11536-11544 (1995).
All bound target domain methyl resonances are well resolved in ^13C-single quantum heteronuclear correlation (^13C-HSQC) NMR spectra and deuterium relaxation parameters could be measured with high precision. The 76 methyl order parameters from 52 residues of the target domains in the six complexes are heterogeneously distributed with O^2axis values ranging from 0.13 to 0.95 (FIG. 5). […]
O^2axis parameters were determined from T1 and T1p deuterium relaxation (Muhandiram, D. R. et al. Measurement of H-2 T-1 and T-1p relaxation-times in uniformly C-13-Labeled and fractionally H-2-labeled proteins in solution. J. Am. Chem. Soc. 117, 11536-11544 (1995)) measured at two magnetic fields. Rotational correlation times and O^2NH were determined from ^15N relaxation (Farrow, N. A. et al. Backbone dynamics of a free and a phosphopeptide-complexed Src homology-2 domain studied by ^15N NMR relaxation. Biochemistry 33, 5984-6003 (1994)) obtained at two magnetic fields. O^2CαCO parameters were determined by transverse cross-correlated relaxation. […]

[3] = molecular target: T1, calcium-saturated calmodulin (CaM); conditions: cited from earlier work; for −TΔSbind: Binding entropy at 308 K (Table 3), values cited per Table 2 footnotes; for −TΔSbinding^total: ITC, 308 K, from Marlow & Wand or Frederick et al.

Row | Substance | −TΔSbind [1] | −TΔSbinding^total [1] | O^2axis [2] | −TΔSbind [3] | −TΔSbinding^total [3]
1 | QTEKMWQRLKGILRSLVKQ [PDE(p)] | +33.9 ± 0.7 kJ/mol | +33.9 ± 0.7 kJ/mol | 0.165 |  | 
2 | AKSKWKQAFNATAVVRHMRKLQ (listed as Homo sapiens) [CaMKI(p)] |  |  |  | +69.6 ± 0.9 kJ/mol | +69.6 ± 0.9 kJ/mol
3 | (COOH-FPNGFSRKRLMSKVLIVTTWSPLL [CaMKKα(p)] |  |  |  | +90.0 ± 1.0 kJ/mol | +90.0 ± 1.0 kJ/mol
4 | RKKTFKEVANAVKISASLMG [eNOS(p)] | +25.7 ± 0.8 kJ/mol | +25.7 ± 0.8 kJ/mol |  |  | 
